Experimental data: patent US20020164696A1 (CHR HANSEN A S, published 2002)
Square brackets hold non-standard residues; d marks the D form. Ends that are not written are not given here. Phe(4-NO2) = N[C@@H](Cc1ccc([N+](=O)[O-])cc1)C(=O)O

Experiments:
[1] = biological target: T1, synthetic peptide corresponding to camel kappa-CN (camel); assay: cleavage kinetics of the synthetic peptide at pH 5.6, Lineweaver-Burke plots; binding inferred from KM
T1 construct: Synthetic substrate peptide, free N- and C-terminus as printed; also called Cd kappa-CN; Cd kappa-CN peptide
T1 peptide: RPRPRPS[Phe(4-NO2)]IAI
Experimental: (§1) Two synthetic peptidases, which correspond to the chymosin sensitive regions of camel- and bovine κ-casein (CN), were proteolytically cleaved with bovine and camel chymosin, respectively. KM and kcat were determined at pH 5.6. Additionally, temperature and pH optima of these reactions were measured. The two following synthetic peptides were used in this study:
(§2) The measurement of samples was repeated 3 to 6 times, the Michaelis-Menten and the turnover values were determined from Lineweaver-Burke plots with weighted linear regression of data.

[2] = biological target: T2, synthetic peptide corresponding to bovine kappa-CN (bovine); assay: as above
T2 construct: Synthetic substrate peptide, free N- and C-terminus as printed; also called Bt kappa-CN; bovine kappa-CN peptide
T2 peptide: HPHPHLS[Phe(4-NO2)]MAI
Experimental: as §1, §2

B1: recombinant Camelus dromedarius chymosin (enzyme, UniProt Q9GK11 59-381, looked up)
chain: GKVAREPLTSYLDSQYFGKIYIGTPPQEFTVVFDTGSSDLWVPSIYCKSNVCKNHHRFDPRKSSTFRNLGKPLSIHYGTGSMEGFLGYDTVTVSNIVDPNQTVGLSTEQPGEVFTYSEFDGILGLAYPSLASEYSVPVFDNMMDRHLVARDLFSVYMDRNGQGSMLTLGAIDPSYYTGSLHWVPVTLQQYWQFTVDSVTINGVAVACVGGCQAILDTGTSVLFGPSSDILKIQMAIGATENRYGEFDVNCGNLRSMPTVVFEINGRDYPLSPSAYTSKDQGFCTSGFQGDNNSELWILGDVFIREYYSVFDRANNRVGLAKAI
notes: mature; also called Cd chymosin; camel chymosin
[1]
  substrate binding relative to bovine chymosin: ~2 fold
[2]
  substrate binding relative to bovine chymosin: ~2 fold
